# Reference: US20250277048A1 (Regeneron, published 2025)
# B1: REGN17544 (antibody, V domains shown)
# VH: EVQLVESGGGLVQPGGSLRLSCAASGFTFGSYGMAWVRQAPGKGLEWVSAISGSGDYTNYADSVKRRFTISRDNSKNTLYLQMSSLRAEDTAVYYCAKEKTGTTGYLYSGMDVWGQGTTVTVSS
# VL: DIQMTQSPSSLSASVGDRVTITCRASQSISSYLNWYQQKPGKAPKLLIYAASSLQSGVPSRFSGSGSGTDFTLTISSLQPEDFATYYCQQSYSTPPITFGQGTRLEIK
# notes: bivalent mAb with two Fab arms identical to the 21520 arm; also called Parental CD40 (21520)
# B2: REGN20484 (bispecific antibody, human IgG4 S228P, kappa)
# heavy 1: EVQLVESGGGLVQPGGSLRLSCAASGFTFGSYGMAWVRQAPGKGLEWVSAISGSGDYTNYADSVKRRFTISRDNSKNTLYLQMSSLRAEDTAVYYCAKEKTGTTGYLYSGMDVWGQGTTVTVSSASTKGPSVFPLAPCSRSTSESTAALGCLVKDYFPEPVTVSWNSGALTSGVHTFPAVLQSSGLYSLSSVVTVPSSSLGTKTYTCNVDHKPSNTKVDKRVESKYGPPCPPCPAPGGGGPSVFLFPPKPKDTLMISRTPEVTCVVVDVSQEDPEVQFNWYVDGVEVHNAKTKPREEQFNSTYRVVSVLTVLHQDWLNGKEYKCKVSNKGLPSSIEKTISKAKGQPREPQVYTLPPSQEEMTKNQVSLTCLVKGFYPSDIAVEWESNGQPENNYKTTPPVLDSDGSFFLYSRLTVDKSRWQEGNVFSCSVMHEALHNHYTQKSLSLSLGK
# heavy 2: EVQLVESGGGLVQPGGSLRLSCAASGFTFSSYAMNWVRQAPGKGLEWVSIISGTIGKTYYADSVKGRFTISRDNSKNTLYLQMNSLRGEDTAVYYCAKDTERDITGSPFDYWGQGTLVTVSSASTKGPSVFPLAPCSRSTSESTAALGCLVKDYFPEPVTVSWNSGALTSGVHTFPAVLQSSGLYSLSSVVTVPSSSLGTKTYTCNVDHKPSNTKVDKRVESKYGPPCPPCPAPGGGGPSVFLFPPKPKDTLMISRTPEVTCVVVDVSQEDPEVQFNWYVDGVEVHNAKTKPREEQFNSTYRVVSVLTVLHQDWLNGKEYKCKVSNKGLPSSIEKTISKAKGQPREPQVYTLPPSQEEMTKNQVSLTCLVKGFYPSDIAVEWESNGQPENNYKTTPPVLDSDGSFFLYSRLTVDKSRWQEGNVFSCSVMHEALHNRFTQKSLSLSPGK
# light: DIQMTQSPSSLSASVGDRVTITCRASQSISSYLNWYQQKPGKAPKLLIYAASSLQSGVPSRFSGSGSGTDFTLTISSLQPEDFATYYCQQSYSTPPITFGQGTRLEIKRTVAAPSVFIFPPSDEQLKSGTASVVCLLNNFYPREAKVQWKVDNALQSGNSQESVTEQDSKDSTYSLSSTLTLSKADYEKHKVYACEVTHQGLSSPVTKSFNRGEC
# B3: REGN17289 (antibody, V domains shown)
# VH: EVQLVESGGGLVQPGGSLRLSCAASGFTFSSYAMNWVRQAPGKGLEWVSIISGTIGKTYYADSVKGRFTISRDNSKNTLYLQMNSLRGEDTAVYYCAKDTERDITGSPFDYWGQGTLVTVSS
# VL: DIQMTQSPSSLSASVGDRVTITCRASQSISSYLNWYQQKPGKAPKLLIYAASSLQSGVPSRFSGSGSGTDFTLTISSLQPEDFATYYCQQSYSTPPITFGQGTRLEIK
# notes: bivalent mAb with two Fab arms identical to the 30027 arm; also called Parental CD40 (30027)
# B4: REGN17288 (antibody, V domains shown)
# VH: QLQLQESGPGLVRPSETLSLTCSVSGASMNTNNYYWGWIRQPPGKGLEWIGSGYYNGNTYYNPSLKSRVTISVDTSKNQFSLKLNSVTAADTAVYYCARQTPPRIIGSPNIWGQGTMVTVSS
# VL: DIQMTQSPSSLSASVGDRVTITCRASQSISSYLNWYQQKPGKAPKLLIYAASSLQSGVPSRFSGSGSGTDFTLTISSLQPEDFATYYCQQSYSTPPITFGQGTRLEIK
# notes: also called Parental CD40 (21519)
# Tests used:
# [1] = target: T1, human CD40 (hCD40) expressed on cells (human, UniProt P25942 21-277); test: cell-based or functional assay
# T1 sequence (P25942 21-277): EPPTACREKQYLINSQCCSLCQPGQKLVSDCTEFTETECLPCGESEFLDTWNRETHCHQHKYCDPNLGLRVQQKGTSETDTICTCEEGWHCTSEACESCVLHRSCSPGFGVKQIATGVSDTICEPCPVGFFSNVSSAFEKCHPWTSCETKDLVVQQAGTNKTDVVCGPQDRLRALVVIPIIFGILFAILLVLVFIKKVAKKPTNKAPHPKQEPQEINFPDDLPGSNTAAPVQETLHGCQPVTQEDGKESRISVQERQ
# [2] = target: T1, human CD40 (hCD40) expressed on cells; test: cell-based or functional assay; remark: listed apart in the source
# [3] = target: T1, human CD40 (hCD40) expressed on cells; test: cell-based or functional assay; remark: listed apart in the source
# [4] = target: T1, human CD40 (hCD40) expressed on cells; test: flow cytometry, Ramos 2G6.4C10 cells
# Method: (§1) Cells were washed with 2% FBS (w/v) in 1×PBS (flow cytometry staining buffer) by centrifugation with benchtop Centrifuge 5810R (Eppendorf®, Hamburg, Germany). Cells were incubated for 30 minutes at 4° C. with serial dilutions of following antibodies ranging from 1.7 pM to 100 nM in flow cytometry staining buffer (1) anti-CD40×CD40 bispecific antibodies, or (2) parental anti-CD40 antibodies (bivalent antibodies comprising 2 fragment antigen-binding [Fab] arms identical to one of the two anti-CD40 Fab of bispecific anti-CD40×CD40 antibodies), or (3) anti-CD40×Irrelevant antibodies (bivalent antibodies that incorporate one Fab arm identical to one of anti-CD40 Fab of anti-CD40×CD40 antibodies and another Fab arm specific to an irrelevant antigen, i.e. birch pollen main allergen Bet v1), or (4) human IgG4 isotype control antibodies with Fc mutation. After washing, cell bound antibodies were detected with 2.5 μg/ml Allophycocyanin (APC)-conjugated goat anti-human IgG antibody specific for the Fcγ fragment (Jackson Immunoresearch, West Grove, PA) for 30 minutes at 4° C. Cells were washed and subsequently fixed with 50% solution of Cytofix™ Fixation Buffer (BD, Franklin Lakes, NJ) in flow cytometry staining buffer for 20 minutes at room temperature. Cells were washed and resuspended in flow cytometry staining buffer and stored at 4° C. for downstream flow cytometry analysis.
# (§2) Acquisition of fluorescence signals were recorded on the ZE5 Cell Analyzer (Bio-Rad, Hercules, CA) according to the manufacturer's recommended procedure and flow cytometry data analysis was performed using the open-source R packages flowCore, flowStats, flowDensity, ggCyto, and flowAI. Multiplexed samples were deconvoluted and individual cell populations were identified based on their unique CellTrace™ fluorescence signature. APC Median Fluorescence intensity (MFI) was recorded to indicate the binding intensity of each antibody over a range of concentrations. Antibodies with MFI greater than 1500 at the highest tested concentration (100 nM) were classified as specific binders. In addition, direct binding signals (APC MFI) were analyzed as a function of the antibody concentration and data were fitted with a sigmoidal (four-parameter logistic) dose-response model using GraphPad Prism™ software.
# [5] = target: T1, human CD40 (hCD40) expressed on cells; test: flow cytometry, HEK293/D9/hCD40 cells
# Method: as §1, §2
# [6] = target: T2, Macaca fascicularis CD40 (mfCD40) expressed on HEK293/D9/mfCD40 cells (Macaca fascicularis, UniProt G7PG38 21-278); test: flow cytometry, HEK293/D9/mfCD40 cells
# T2 construct: whole, on cells; also called monkey CD40
# Method: as §1, §2
# [7] = target: T3, human CD40 extracellular domain expressed with a C-terminal myc-myc-hexahistidine tag (human); test: ELISA blocking of 40 nM hCD40-mmH binding to 9His-hCD40L
# T3 construct: also called hCD40-MMH; hCD40-mmH
# T3 sequence (chain, as listed by the source limits assumed): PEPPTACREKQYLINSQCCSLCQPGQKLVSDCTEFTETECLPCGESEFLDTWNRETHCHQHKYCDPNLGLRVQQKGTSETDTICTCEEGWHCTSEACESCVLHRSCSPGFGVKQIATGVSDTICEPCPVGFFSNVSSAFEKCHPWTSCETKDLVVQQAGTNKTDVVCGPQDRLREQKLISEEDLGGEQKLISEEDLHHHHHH
# Excerpt: An ELISA-based blocking assay was developed to determine the ability of C40×CD40 bispecific antibodies to block the binding of the hCD40 monomer to plate-coated hCD40L. The recombinant human CD40-mmH protein (hCD40-MMH; REGN3094; SEQ ID NO: 53) used in the experiments comprises a portion of the human CD40 extracellular domain (amino acids P20-R193) fused to 2×Myc peptide and 6×histadine (SEQ ID NO: 1110) at the C-terminus of human CD40, and the human CD40L (accession #NM_000074.2) with amino acids E108-L261 of the extracellular domain with 9×His-2×(SGGG)-IGER at the N-terminus (9His-hCD40L) was commercially obtained from Biolegend.
# In the blocking assay, 9His-hCD40L was passively absorbed at a concentration of 5 μg/mL in PBS on a 96-well microtiter plate overnight at 4° C. […] In a separate 96-well microtiter plate, a fixed amount of 40 nM hCD40-mmH was pre-mixed with one of the following antibodies, at concentrations ranging from 977 pM to 1 μM in PBS+0.5% BSA: (1) CD40×CD40 bispecific antibodies (REGN16431, REGN16432, REGN16634, and REGN16335); (2) parental CD40 mAbs (bivalent antibodies comprising 2 fragment antigen-binding [Fab] arms identical to one of anti-CD40 Fab of CD40×CD40 antibodies); (3) CD40×Irrelevant antibodies (bivalent antibodies that incorporate one Fab arm identical to one of anti-CD40 Fab of CD40×CD40 antibodies and another Fab arm specific to an irrelevant antigen); and (4) human IgG4 with Fc mutation isotype control antibodies (REGN7540 and REGN4513). The fixed concentration of hCD40-mmH was selected to be near the concentration (EC₅₀ value) that generated 50% of the maximal binding to the plate-adhered 9His-hCD40L. After one-hour incubation, the antibody-antigen complexes were transferred to the microtiter plate coated with 9His-hCD40L. After one hour incubation at room temperature, the plates were washed, and plate-bound hCD40-mmH protein was detected with horseradish peroxidase (HRP) conjugated goat anti-c-Myc antibody. The plates were then developed using TMB substrate solution (BD Biosciences) according to the manufacturer's recommended procedure and the absorbance at 450 nm (OD₄₅₀) was measured on a SpectraMax i3×plate reader.
# [8] = target: T1, human CD40 (hCD40) expressed on cells; test: cell-based or functional assay; remark: listed apart in the source
# [9] = target: T1, human CD40 (hCD40) expressed on cells; test: cell-based or functional assay; remark: listed apart in the source
# [10] = target: T1, human CD40 (hCD40) expressed on cells; test: cell-based or functional assay; remark: listed apart in the source
Binder,"IC50, 500 pM hCD40L, Ramos NFkB-luc [1] [M]","Max % activation, no ligand, Ramos NFkB-luc [1] [%]","Max % inhibition, 500 pM hCD40L, Ramos NFkB-luc [1] [%]","IC50, 900 pM hCD40L, Raji NFkB-luc [2] [M]","Max % activation, no ligand, Raji NFkB-luc [2] [%]","Max % inhibition, 900 pM hCD40L, Raji NFkB-luc [2] [%]","IC50, 10 nM hCD40L, THP-1 NFkB-luc [3] [nM]","Max % activation, no ligand, THP-1 NFkB-luc [3] [%]","Max % inhibition, 10 nM hCD40L, THP-1 NFkB-luc [3] [%]",EC50 [4] [nM],MFI at 100 nM [4] [MFI],EC50 [5] [nM],MFI at 100 nM [5] [MFI],EC50 [6] [nM],MFI at 100 nM [6] [MFI],% Blocking at 1 uM mAb [7] [%],IC50 [7] [nM],also measured
B1,1.89e-10,10,77,1.35e-10,11,81,1.13,4,96,0.87,2440,0.98,20500,4.3,23200,91,71,
B2,,,,,,,,,,,,,,,,,,"% max blockade relative to no mAb, IL-6, assay #2 donor 1 [8]: 89%; % max blockade relative to no mAb, IL-6, assay #2 donor 2 [8]: 88.1%; % max blockade relative to no mAb, IL-10, assay #2 donor 1 [9]: 87.1%; % max blockade relative to no mAb, IL-10, assay #2 donor 2 [9]: 90.9%; % max blockade relative to no mAb, TNFa, assay #2 donor 1 [10]: 61.9%; % max blockade relative to no mAb, TNFa, assay #2 donor 2 [10]: 52.3%"
B3,,4,-133,2.72e-11,10,55,,1,-92,0.47,2660,0.76,20500,1.1,32900,10,,"EC50 (potentiation), 500 pM hCD40L, Ramos NFkB-luc [1]: 7.51e-12 M; EC50 (potentiation), 10 nM hCD40L, THP-1 NFkB-luc [3]: 0.016 nM"
B4,4.07e-11,6,88,4.28e-11,14,90,0.334,0,98,1.3,2420,1.2,20300,9.2,11800,94,52,
